Measurements: patent US20210087268A1

Biological target: T1, TIGIT expressed on cells (TIGIT-expressing effector cell line of the Promega kit; TIGIT-overexpressing NK92 cell line) (UniProt Q495A1)
T1 sequence (looked up): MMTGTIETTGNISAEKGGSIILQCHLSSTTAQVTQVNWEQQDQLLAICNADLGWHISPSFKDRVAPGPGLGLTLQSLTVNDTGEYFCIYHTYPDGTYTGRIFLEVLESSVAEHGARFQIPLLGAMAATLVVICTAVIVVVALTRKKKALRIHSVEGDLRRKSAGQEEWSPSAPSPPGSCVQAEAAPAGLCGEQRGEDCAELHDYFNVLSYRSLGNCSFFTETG
Assay: cell-based or functional assay

Chain of 10A7 antibody (VH): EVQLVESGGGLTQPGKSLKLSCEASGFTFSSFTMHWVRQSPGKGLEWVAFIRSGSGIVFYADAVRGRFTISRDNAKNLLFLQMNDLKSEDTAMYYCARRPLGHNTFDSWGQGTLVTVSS
Chain of 10A7 antibody (VL): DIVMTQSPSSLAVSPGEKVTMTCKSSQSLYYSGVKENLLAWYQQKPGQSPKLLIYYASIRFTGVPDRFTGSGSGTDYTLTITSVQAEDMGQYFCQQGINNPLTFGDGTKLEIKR

Substance: 10A7 antibody
- binding inhibition (EC50), TIGIT/CD155 blockade assay, luminescence fold response: 752 nM
